Like-named read-outs stand apart in the source and are kept apart here.
What was measured:
DYT-TOR1A MEF EVs = assay: Quantitative LC-MS/MS proteomics of EVs from drug-treated DYT-TOR1A MEF cultures (ritonavir, salubrinal); type: cell-based, mouse; parameters: key to RTV Corrective Direction / RTV Corrective Direction, Grwd1 / RTV Corrective Direction, Srrm2 / RTV Corrective Direction, Rbm17 / RTV Corrective Direction, Dcaf8 / RTV Corrective Direction, Edil3 / RTV Corrective Direction, Timp3 / RTV Corrective Direction, Heatr3 / RTV Corrective Direction, Brd4 / RTV Corrective Direction, P3h4 / RTV Corrective Direction, Pacsin3 / RTV Corrective Direction, Naa50 / RTV Corrective Direction, Lpar6 / RTV Corrective Direction, Ndrg1 / RTV Corrective Direction, Kntc1 / RTV Corrective Direction, Cdk11b / RTV Corrective Direction, Sumo1 / RTV Corrective Direction, Lsm4 / RTV Corrective Direction, Hmga2 / RTV Corrective Direction, Cstf1 / RTV Corrective Direction, Tes / RTV Corrective Direction, Sbno1 / RTV Corrective Direction, Unc119b / RTV Corrective Direction, Cfdp1 / RTV Corrective Direction, Sec61b: YES = protein abundance effect opposite to DYT/WT; conditions: for DYT + RTV/DYT Cohen's d: ritonavir (RTV)-treated DYT vs DYT
WT MEF EVs = assay: Quantitative LC-MS/MS proteomics of EVs from ISRIB-treated WT MEF cultures; type: cell-based, mouse; conditions: EV protein abundance, ISRIB-treated WT vs WT
[1] = EV protein abundance, DYT + RTV (ritonavir) vs DYT, direction compared with DYT/WT

Molecule | RTV Corrective Direction (DYT-TOR1A MEF EVs; [1]) | DYT + RTV/DYT Cohen's d (DYT-TOR1A MEF EVs; EV protein abundance) | WT + ISRIB/WT Cohen's d (WT MEF EVs) | RTV Corrective Direction (DYT-TOR1A MEF EVs)
Tra2b (protein, UniProt P62996 2-288, looked up) Transformer-2 protein homolog …: SDSGEQNYGERESRSASRSGSAHGSGKSARHTPARSRSKEDSRRSRSKSRSRSESRSRSRRSSRRHYTRSRSRSRSHRRSRSRSYSRDYRRRHSHSHSPMSTRRRHVGNRANPDPNCCLGVFGLSLYTTERDLREVFSKYGPIADVSIVYDQQSRRSRGFAFVYFENVDDAKEAKERANGMELDGRRIRVDFSITKRPHTPTPGIYMGRPTYGSSRRRDYYDRGYDRGYDDRDYYSRSYRGGGGGGGGWRAAQDRDQIYRRRSPSPYYSRGGYRSRSRSRSYSPRRY | YES | 3.28 | 0.54 | –
Ssb (protein, UniProt P32067 1-415, looked up) Lupus La protein homolog: MAENGDNEKMTALEAKICHQIEYYFGDFNLPRDKFLKEQIKLDEGWVPLETMIKFNRLNRLTTDFNVIVQALSKSKAKLMEVSADKTKIRRSPSRPLPEVTDEYKNDVKNRSVYIKGFPTDATLDDIKEWLDDKGQILNIQMRRTLHKTFKGSIFAVFDSIQSAKKFVEIPGQKYKDTNLLILFKEDYFAKKNEERKQSKVEAKLKAKQEHEGRHKPGSTETRALEGKMGCLLKFSGDLDDQTCREDLHFLFSNHGEIKWVDFARGAKEGIILFKEKAKEALEKARNANNGNLLLRNKKVTWKVLEGHAEKEALKKITDDQQESLNKWKSKGGHAGGRFKGSHVFTAARRFKGKGKGNRPGYAGAPKGRGQFHGRRTRFDDDDRRRGPMKRGRDGRDREEPASKHKKRENGARDK | – | 2.79 | 0.41 | YES
Srsf7 (protein, UniProt Q8BL97 1-267, looked up) Serine/arginine-rich splicing …: MRSSARGRPLQAATAFFLSLFFFLRRFERGFWLWGGDSETKVYVGNLGTGAGKGELERAFSYYGPLRTVWIARNPPGFAFVEFEDPRDAEDAVRGLDGKVICGSRVRVELSTGMPRRSRFDRPPARRPFDPNDRCYECGEKGHYAYDCHRYSRRRRSRSRSRSHSRSRGRRYSRSRSRSRGRRSRSASPRRSRSVSLRRSRSASLRRSRSGSIIGSRYFQSRSRSRSRSRSISRPRSSRSKSRSPSPKRSRSPSGSPHRSASPERMD | YES | 2.91 | 0.13 | –
Pura (protein, UniProt P42669 2-321, looked up) Transcriptional activator …: ADRDSGSEQGGAALGSGGSLGHPGSGSGSGGGGGGGGGGGGSGGGGGAPGGLQHETQELASKRVDIQNKRFYLDVKQNAKGRFLKIAEVGAGGNKSRLTLSMSVAVEFRDYLGDFIEHYAQLGPSQPPDLAQAQDEPRRALKSEFLVRENRKYYMDLKENQRGRFLRIRQTVNRGPGLGSTQGQTIALPAQGLIEFRDALAKLIDDYGVEEEPAELPEGTSLTVDNKRFFFDVGSNKYGVFMRVSEVKPTYRNSITVPYKVWAKFGHTFCKYSEEMKKIQEKQREKRAACEQLHQQQQQQQEETTAATLLLQGEEEGEED | – | 2.36 | 0.52 | YES
Pdia4 (protein, UniProt P08003 21-638, looked up) Protein disulfide-isomerase A4: AASAGDAHEDTSDTENATEEEEEEDDDDLEVKEENGVWVLNDGNFDNFVADKDTVLLEFYAPWCGHCKQFAPEYEKIASTLKDNDPPIAVAKIDATSASMLASKFDVSGYPTIKILKKGQAVDYDGSRTQEEIVAKVREVSQPDWTPPPEVTLSLTKDNFDDVVNNADIILVEFYAPWCGHCKKLAPEYEKAAKELSKRSPPIPLAKVDATEQTDLAKRFDVSGYPTLKIFRKGRPFDYNGPREKYGIVDYMIEQSGPPSKEILTLKQVQEFLKDGDDVVIIGLFQGDGDPAYLQYQDAANNLREDYKFHHTFSPEIAKFLKVSLGKLVLTHPEKFQSKYEPRFHVMDVQGSTEASAIKDYVVKHALPLVGHRKTSNDAKRYSKRPLVVVYYSVDFSFDYRAATQFWRNKVLEVAKDFPEYTFAIADEEDYATEVKDLGLSESGEDVNAAILDESGKKFAMEPEEFDSDTLREFVTAFKKGKLKPVIKSQPVPKNNKGPVKVVVGKTFDAIVMDPKKDVLIEFYAPWCGHCKQLEPIYTSLGKKYKGQKDLVIAKMDATANDITNDQYKVEGFPTIYFAPSGDKKNPIKFEGGNRDLEHLSKFIDEHATKRSRTKEEL | YES | 2.25 | 1.37 | –
